Assay results reported in US20070004636A1, “Method of degrading transcriptional factors of saccharometabolism-associated gene, method for inhibiting the degradation, and agent for inhibiting degradation and degradation inhibitor” (priority 2002, published 2007).

Assays:
[1] = system: human HNF-4α; assay: in vitro protein degradation test of HNF-4α by calpain (Western blotting); format: biochemical; conditions: 1 hour at 37° C.
Protocol: Using the HNF-4α expression plasmid, in vitro synthesis of HNF-4α protein was conducted using the TNT T7 Quick Coupled Transcription/Translation System (Promega, Inc.). That is, the HNF-4α expression plasmid was mixed with TNT T7 Quick Master Mix, and then incubated for 1.5 hours at 30° C. in the presence of methionine to synthesize HNF-4α.
The in vitro protein degradation test was carried out by adding m-calpain extracted from rabbit muscle (Protease, Calcium-Activated Neutral (calpain), Sigma Chemical Co.) at a final concentration of 50 μg/mL to the synthesized HNF-4α, and then incubating for 1 hour at 37° C. in the presence of 200 mM Tris-HCl (pH 7.8)/1 mM dithiothreitol (DTT)/6 mM CaCl2. To conduct a degradation test in the absence of calcium, a test sample was prepared by adding 10 mM ethylenediaminetetraacetic acid (EDTA) instead of 6 mM CaCl2, and the sample was then incubated in a similar manner. The samples after incubation were added to an equal volume of 2× sodium dodecyl sulfate (SDS) sample buffer (4% SDS/125 mM Tris-HCl, pH 6.8/20% glycerol/0.01% bromphenol blue (BPB)/10% β-mercaptoethanol), heated for 5 minutes, and subjected to 10% SDS-PAGE for separation. Thereafter, Western blotting was carried out to detect HNF-4α using anti-HNF-4α antibody/HNF-4α (C-19) antibody (Santa Cruz Biotechnology, Inc.) and anti-Xpress antibody (Invitrogen, Inc.). An ECL Western blotting detection kit (Amersham pharmacia biotech) was used for the detection.
The final concentration of human m-calpain in the reaction system was 2.33 mg/mL as the protein concentration of the lysate of sf-9 cells that expressed human m-calpain. The final concentration of rat m-calpain in the reaction system was 59 units/mL. A degradation test was also conducted in the same manner without addition of calpain. Further, to test for degradation in the absence of calcium, a sample was prepared by adding 10 mM of EDTA instead of 6 mM CaCl2, and a degradation test was conducted with the sample in a similar manner. The samples after incubation were added to an equal volume of 2×SDS sample buffer, heated for 5 minutes, and subjected to 5-20% SDS-PAGE for separation. Thereafter, Western blotting was carried out to detect HNF-4α using anti-HNF-4α antibody/HNF-4α (C-19) antibody. An ECL Western blotting detection kit was used for the detection.
An in vitro protein degradation test was carried out by adding μ-calpain to HNF-4α at a final concentration of 50 units/mL, and incubating for 1 hour at 37° C. in the presence of 200 mM Tris-HCl (pH 7.8)/1 mM DTT/6 mM CaCl2. […]

[2] = biological target: T1, human HNF-4α (Homo sapiens, UniProt P41235); assay: binding test by intracellular coexpression/immunoprecipitation in HEK293T cells; format: cell-based; conditions: FLAG-tagged m-calpain coexpressed with Xpress-tagged HNF-4α in HEK293T cells
T1 construct: expressed in transfected cells; host or cells: HEK293T
T1 sequence (P41235 10-474): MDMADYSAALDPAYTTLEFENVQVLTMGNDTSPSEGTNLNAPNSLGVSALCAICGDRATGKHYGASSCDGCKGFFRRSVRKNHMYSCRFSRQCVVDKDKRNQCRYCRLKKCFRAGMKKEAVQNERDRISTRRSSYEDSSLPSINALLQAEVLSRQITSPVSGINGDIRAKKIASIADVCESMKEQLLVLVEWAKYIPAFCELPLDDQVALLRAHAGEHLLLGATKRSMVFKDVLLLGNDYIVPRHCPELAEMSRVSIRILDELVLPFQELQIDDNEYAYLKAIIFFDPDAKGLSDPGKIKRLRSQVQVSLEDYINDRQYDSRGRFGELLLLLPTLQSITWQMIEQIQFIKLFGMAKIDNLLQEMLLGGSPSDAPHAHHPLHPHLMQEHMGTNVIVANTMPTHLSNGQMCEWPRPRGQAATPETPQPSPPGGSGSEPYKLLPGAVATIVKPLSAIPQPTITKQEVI
Protocol: First, the m-calpain gene was co-transfected with the HNF-4α gene into HEK293T cells. More specifically, after culturing a total number of 1.3×10^6 HEK293T cells for 4 hours at 37° C. in the presence of 5% CO2 (Petri dish with 60 mm diameter), 5 μg of HNF4α expression plasmid or pcDNA 3.1/His plasmid as a negative control was transfected thereto together with 5 μg of m-calpain expression plasmid using the FuGENE 6 Transfection Reagent (Roche Applied Science). After two days culturing, the cells were washed with cold phosphate buffered saline (−) (hereunder, referred to as “PBS(−)”), suspended in 500 μl of cell lysis buffer (20 mM HEPES, pH 7.5/150 mM NaCl/1 mM EDTA/1% Triton X-100/1 mM phenylmethyl sulfonyl fluoride (PMSF)), and left to stand on ice for 20 mins. Thereafter, the cells were subjected to centrifugation at 15,000 rpm for 20 min at 4° C. to collect the supernatant for use as cell lysate. Subsequently, the collected lysate was added to 18 μl of Protein G Sepharose 4 Fast Flow (Amersham Pharmacia Biotech) that was pretreated with TBS (pH 8.0) containing 0.1% bovine serum albumin, and mixed by inversion for 2 hours at 4° C., followed by centrifugation to collect the supernatant. 0.6 μg of anti-HNF-4α antibody/HNF-4α (C-19) antibody was added to the collected supernatant, and mixed by inversion for 1 hour at 4° C. […]

B1: human m-calpain: lysate of sf-9 insect cells coexpressing human m-calpain with calpain small subunit 1; FLAG-tagged, expressed in HEK293T cells, in Example 3 (protein, UniProt P17655 20-700; P04632 1-268, looked up)
Calpain-2 catalytic subunit: SHDRAIKYLNQDYEALRNECLEAGTLFQDPSFPAIPSALGFKELGPYSSKTRGIEWKRPTEICADPQFIIGGATRTDICQGALGDCWLLAAIASLTLNEEILARVVPLNQSFQENYAGIFHFQFWQYGEWVEVVVDDRLPTKDGELLFVHSAEGSEFWSALLEKAYAKINGCYEALSGGATTEGFEDFTGGIAEWYELKKPPPNLFKIIQKALQKGSLLGCSIDITSAADSEAITFQKLVKGHAYSVTGAEEVESNGSLQKLIRIRNPWGEVEWTGRWNDNCPSWNTIDPEERERLTRRHEDGEFWMSFSDFLRHYSRLEICNLTPDTLTSDTYKKWKLTKMDGNWRRGSTAGGCRNYPNTFWMNPQYLIKLEEEDEDEEDGESGCTFLVGLIQKHRRRQRKMGEDMHTIGFGIYEVPEELSGQTNIHLSKNFFLTNRARERSDTFINLREVLNRFKLPPGEYILVPSTFEPNKDGDFCIRVFSEKKADYQAVDDEIEANLEEFDISEDDIDDGFRRLFAQLAGEDAEISAFELQTILRRVLAKRQDIKSDGFSIETCKIMVDMLDSDGSGKLGLKEFYILWTKIQKYQKIYREIDVDRSGTMNSYEMRKALEEAGFKMPCQLHQVIVARFADDQLIIDFDNFVRCLVRLETLFKIFKQLDPENTGTIELDLISWLCFSVL
Calpain small subunit 1: MFLVNSFLKGGGGGGGGGGGLGGGLGNVLGGLISGAGGGGGGGGGGGGGGGGGGGGTAMRILGGVISAISEAAAQYNPEPPPPRTHYSNIEANESEEVRQFRRLFAQLAGDDMEVSATELMNILNKVVTRHPDLKTDGFGIDTCRSMVAVMDSDTTGKLGFEEFKYLWNNIKRWQAIYKQFDTDRSGTICSSELPGAFEAAGFHLNEHLYNMIIRRYSDESGNMDFDNFISCLVRLDAMFRAFKSLDKDGTGQIQVNIQEWLQLTMYS
modifications: FLAG tag
[1]; in the absence of calcium (10 mM EDTA instead of CaCl2)
  degradation of HNF-4α: not observed
[1]; in the presence of calcium (6 mM CaCl2), Western blotting
  degradation of HNF-4α: observed
[2]
  binding to HNF-4α (coprecipitation with anti-HNF-4α antibody): coprecipitated
